According to US20130280271A1 (INSTITUTE FOR CANCER RESEARCH, published 2013):

Molecular target: the molecule itself
Test: static light scattering; self-association
Description: Light scattering analysis. Measurements were made with a Protein Solutions DynaPro Temperature Controlled Microsampler. Samples were adjusted to the desired concentration and particulates removed by filtration through a 0.2μ microcon device, and subsequent clearing by brief centrifugation at 14,000×g and 4° C. The protein concentration was then determined directly using absorbance at 280 nm and a calculated molar extinction coefficient, taking the average of 3 readings. All samples were analyzed under conditions of 10° C. in a buffer of 25 mM BisTris pH 6.1, 500 mM NaCl, 1 mM DTT, 0.1 mM EDTA, 5% glycerol. The molecular mass (MW I) was calculated from the static light scattering measurements (at least 300 acquisitions per protein sample) using the DynaPro software.

B1: ASV IN(1-207) (enzyme)
chain: PLREAKDLHTALHIGPRALSKACNISMQQAREVVQTCPHCNSAPALEAGVNPRGLGPLQIWQTDFTLEPRMAPRSWLAVTVDTASSAIVVTQHGRVTSVAAQHHWATAIAVLGRPKAIKTDNGSCFTSKSTREWLARWGIAHTTGIPGNSQGQAMVERANRLLKDKIRVLAEGDGFMKRIPTSKQGELLAKAMYALNHFERGENTKT
notes: also called IN fragment that lacks the CTD
binding result: no binding (tested: 1.5 mg/ml)
